Reference: patent US6998260 (PROMEGA, dated 2006)

B1: human β-I tryptase active site mutant S194A (enzyme)
chain: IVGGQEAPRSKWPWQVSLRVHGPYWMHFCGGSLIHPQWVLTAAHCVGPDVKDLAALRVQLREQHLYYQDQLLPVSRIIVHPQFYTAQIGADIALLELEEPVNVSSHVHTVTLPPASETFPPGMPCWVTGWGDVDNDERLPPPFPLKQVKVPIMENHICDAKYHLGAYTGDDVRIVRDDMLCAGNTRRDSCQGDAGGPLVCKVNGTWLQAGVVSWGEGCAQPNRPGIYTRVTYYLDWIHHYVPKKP
notes: also called β-I S194A active site mutant; S194A β-I tryptase active site mutant
B2: recombinant human β-I tryptase (from pPIC9-HumTry, expressed in Pichia pastoris) (enzyme)
chain: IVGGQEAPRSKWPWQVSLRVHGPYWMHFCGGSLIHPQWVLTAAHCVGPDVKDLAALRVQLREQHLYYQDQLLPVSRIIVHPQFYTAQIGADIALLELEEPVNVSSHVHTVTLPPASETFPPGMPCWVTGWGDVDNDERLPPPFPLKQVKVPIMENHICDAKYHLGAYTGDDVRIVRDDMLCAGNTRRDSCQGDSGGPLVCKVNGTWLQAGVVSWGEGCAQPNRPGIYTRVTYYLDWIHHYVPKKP
modifications: N-glycosylated at two sites (N102 and N204, as the filing says)
notes: Secreted as a mature monomer that self-assembles into a homotetramer; On the Western blots (SDS-PAGE) it stood as denatured subunits; also called rh β I; R βI tryptase
B3: recombinant human β-II tryptase (from pPIC9-HumTryN102K, expressed in Pichia pastoris) (enzyme)
chain: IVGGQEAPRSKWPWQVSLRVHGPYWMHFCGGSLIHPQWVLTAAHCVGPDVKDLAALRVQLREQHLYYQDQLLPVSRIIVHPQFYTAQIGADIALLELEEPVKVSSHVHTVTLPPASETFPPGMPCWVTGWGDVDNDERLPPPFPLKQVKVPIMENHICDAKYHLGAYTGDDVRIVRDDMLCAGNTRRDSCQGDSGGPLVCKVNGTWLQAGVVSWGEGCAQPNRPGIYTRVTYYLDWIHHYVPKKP
modifications: N-glycosylated at one site
notes: Homotetramer by gel filtration; also called rh β II; R βII tryptase

Target: the molecule itself
Assay: gel filtration; self-association of subunits into a homotetramer

Row | Protein | binding result
1 | B1 | binds
2 | B2 | binds
3 | B3 | binds
